In US20210040184A1:
pKd: −log10 of the molar value.

What was measured:
[1] = target: Clade C DU172.17 gp120 protein (HIV-1 Clade C, DU172.17); experiment: BLI (Octet), IgG on anti-hIgG Fc sensor, gp120 analyte, 1:1 fit
[2] = target: Clade B BaL gp120 protein (HIV-1 Clade B, BaL); experiment: as above
[3] = target: HIV-1 REJO4541.67 envelope (Env) on Env.IMC.LucR virus (HIV-1 clade B); experiment: cell-based or functional assay
[4] = target: HIV-1 DU172.17 envelope (Env) on Env.IMC.LucR virus (HIV-1 clade C); experiment: cell-based or functional assay
[5] = target: HIV-1 CNE20 envelope (Env) on Env.IMC.LucR virus (HIV-1 clade BC); experiment: cell-based or functional assay
[6] = target: HIV-1 X1632_S2_B10 envelope (Env) on Env.IMC.LucR virus (HIV-1 clade G); experiment: cell-based or functional assay
[7] = target: HIV-1 AC10.0.29 envelope (Env) on Env.IMC.LucR virus (HIV-1 clade B); experiment: cell-based or functional assay
[8] = target: HIV-1 CAP45.2.00.G3 envelope (Env) on Env.IMC.LucR virus (HIV-1 clade C); experiment: cell-based or functional assay
[9] = target: HIV-1 DU422.1 envelope (Env) on Env.IMC.LucR virus (HIV-1 clade C); experiment: cell-based or functional assay

3BNC117 (antibody)
pKd [1]: 7.02
fold (KD vs average of 4 runs of L1A2) [1]: 3.77 fold
koff [1]: 0.00457 s⁻¹
kon [1]: 47700 M⁻¹ s⁻¹
pKd [2]: 8.48
fold (KD vs average of 4 runs of L1A2) [2]: 6.07 fold
koff [2]: 0.000291 s⁻¹
kon [2]: 88500 M⁻¹ s⁻¹
IC50 of virus neutralization (TZM-BL, luciferase) [3]: 0.07 µg/mL
IC50 of virus neutralization (TZM-BL, luciferase) [4]: 1.25 µg/mL
IC50 of virus neutralization (TZM-BL, luciferase) [5]: > 50 µg/mL
IC50 of virus neutralization (TZM-BL, luciferase) [6]: 31.2 µg/mL
IC50 of virus neutralization (TZM-BL, luciferase) [7]: 11 µg/mL
IC50 of virus neutralization (TZM-BL, luciferase) [8]: 2.7 µg/mL
IC50 of virus neutralization (TZM-BL, luciferase) [9]: > 50 µg/mL
